# Measurements published in US20150344570A1 (published 2015).
# T1: FcγRIIb extracellular domain with C-terminal His tag (human, UniProt P31994 43-217)
# T1 construct: extracellular domain; also called 2b; FcgRIIb
# T1 sequence (looked up): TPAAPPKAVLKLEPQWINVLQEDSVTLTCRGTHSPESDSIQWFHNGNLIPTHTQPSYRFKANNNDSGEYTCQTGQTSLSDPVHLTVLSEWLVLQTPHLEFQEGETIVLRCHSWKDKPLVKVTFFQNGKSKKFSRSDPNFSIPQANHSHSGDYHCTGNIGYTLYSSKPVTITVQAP
# T2: FcγRIIb, extracellular domain with C-terminal His tag (human, UniProt P31994 43-217)
# T2 construct: extracellular domain; also called 2b; FcgRIIb; not shown: His tag at the C terminus
# T2 sequence (looked up): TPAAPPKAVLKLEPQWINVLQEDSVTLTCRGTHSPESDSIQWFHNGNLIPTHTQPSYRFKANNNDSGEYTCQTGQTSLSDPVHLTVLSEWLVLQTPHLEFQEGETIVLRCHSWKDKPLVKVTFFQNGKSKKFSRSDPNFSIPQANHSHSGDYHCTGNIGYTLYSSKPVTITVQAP
# T3: FcγRIIa H (FcgRIIa type H, His at position 131), extracellular domain with C-terminal His tag (human, UniProt P12318 34-217)
# T3 construct: extracellular domain; also called 2aH; FcgRIIa H; not shown: His tag at the C terminus
# T3 sequence (looked up): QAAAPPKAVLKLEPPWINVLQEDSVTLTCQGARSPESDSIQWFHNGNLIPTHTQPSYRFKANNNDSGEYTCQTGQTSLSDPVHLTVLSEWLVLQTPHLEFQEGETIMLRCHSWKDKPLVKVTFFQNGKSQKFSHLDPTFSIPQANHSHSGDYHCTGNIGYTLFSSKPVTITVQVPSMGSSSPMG
# Assays:
# [1] = biological target: T4, FcγRIIIa extracellular domain with C-terminal His tag (human, UniProt P08637 17-208); test: SPR, binding relative to GpH7-A5/GpH7-B3/GpL16-k0 = 100
# T4 construct: extracellular domain; also called 3a; FcgRIIIa
# T4 sequence (P08637 17-208): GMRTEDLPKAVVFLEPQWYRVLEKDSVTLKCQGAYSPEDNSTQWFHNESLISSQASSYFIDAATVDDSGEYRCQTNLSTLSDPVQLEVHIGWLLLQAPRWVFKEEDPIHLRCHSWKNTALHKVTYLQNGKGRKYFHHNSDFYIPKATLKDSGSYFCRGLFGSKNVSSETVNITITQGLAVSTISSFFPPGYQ
# Method: (§1) The heterodimerized antibodies He Abs in which one of the H chains was introduced with an alteration were assayed for their binding activities to each activating FcγR and inhibitory FcγR according to the method described in Example 4. […] The activating FcγRs in FIGS. 26, 27, 28, and 29 are FcγRIa, FcγRIIa (R), FcγRIIa (H), and FcγRIIIa, respectively.
# (§2) Analysis of interaction between objective antibody and the FcγR was carried out using Biacore T100 (GE Healthcare). HBS-EP+ (GE Healthcare) was used as the running buffer, and the measurement temperature was set to 25° C. Chips produced by immobilizing the antigen peptide by the amine coupling method to a Series S Sencor Chip CM5 (GE Healthcare), or alternatively, chips produced by allowing preliminarily biotinylated antigen peptides to interact with and immobilize onto a Series S Sensor Chip SA (certified) (GE Healthcare) were used. Antibodies of interest were captured onto an antigen peptide-immobilized chip, and allowed to interact to each FcγR diluted with running buffer. To regenerate and repeatedly use the chip, the antibodies captured on the chip were washed off by reacting 10 mM glycine-HCl, pH 1.5.
# [2] = biological target: T1, FcγRIIb extracellular domain with …; test: as above
# Method: as §1, §2
# [3] = biological target: T2, FcγRIIb, extracellular domain with …; test: SPR (Biacore), relative binding, GpH7-A5/GpH7-B3/GpL16-k0 = 100
# [4] = biological target: T3, FcγRIIa H (FcgRIIa type H, His at …); test: as above
Binder,He/Con_3a [1],He/Con_2b [2],He/Con_2b [3],He/Con_2aH [4]
"GpH7-A5/GpH7-B3 variant S324_02A/GpL16-k0 (antibody, human IgG1, kappa, also called He Ab) heavy 1: not shown heavy 2: not shown light: DIVMTQSPLSLPVTPGEPASISCQASESLVHSNRNTYLHWYLQKPGQSPQLLIYKVSNRFSGVPDRFSGSGSGTDFTLKISRVEAEDVGVYYCSQNTHVPPTFGQGTKVEIERTVAAPSVFIFPPSDEQLKSGTASVVCLLNNFYPREAKVQWKVDNALQSGNSQESVTEQDSKDSTYSLSSTLTLSKADYEKHKVYACEVTHQGLSSPVTKSFNRGEC",104 % of control,78.3 % of control,,
"GpH7-A5/GpH7-B3 variant T335_05P/GpL16-k0 (antibody, human IgG1, kappa, also called He Ab) heavy 1: not shown heavy 2: not shown light: DIVMTQSPLSLPVTPGEPASISCQASESLVHSNRNTYLHWYLQKPGQSPQLLIYKVSNRFSGVPDRFSGSGSGTDFTLKISRVEAEDVGVYYCSQNTHVPPTFGQGTKVEIERTVAAPSVFIFPPSDEQLKSGTASVVCLLNNFYPREAKVQWKVDNALQSGNSQESVTEQDSKDSTYSLSSTLTLSKADYEKHKVYACEVTHQGLSSPVTKSFNRGEC",105 % of control,99.9 % of control,,
"GpH7-A5/GpH7-B3 variant S324_14T/GpL16-k0 (antibody, human IgG1, kappa, also called He Ab) heavy 1: not shown heavy 2: not shown light: DIVMTQSPLSLPVTPGEPASISCQASESLVHSNRNTYLHWYLQKPGQSPQLLIYKVSNRFSGVPDRFSGSGSGTDFTLKISRVEAEDVGVYYCSQNTHVPPTFGQGTKVEIERTVAAPSVFIFPPSDEQLKSGTASVVCLLNNFYPREAKVQWKVDNALQSGNSQESVTEQDSKDSTYSLSSTLTLSKADYEKHKVYACEVTHQGLSSPVTKSFNRGEC",103 % of control,88.4 % of control,,
"GpH7-A5/GpH7-B3 variant S337_04F/GpL16-k0 (antibody, human IgG1, kappa, also called He Ab) heavy 1: not shown heavy 2: not shown light: DIVMTQSPLSLPVTPGEPASISCQASESLVHSNRNTYLHWYLQKPGQSPQLLIYKVSNRFSGVPDRFSGSGSGTDFTLKISRVEAEDVGVYYCSQNTHVPPTFGQGTKVEIERTVAAPSVFIFPPSDEQLKSGTASVVCLLNNFYPREAKVQWKVDNALQSGNSQESVTEQDSKDSTYSLSSTLTLSKADYEKHKVYACEVTHQGLSSPVTKSFNRGEC",101 % of control,97.8 % of control,,
"GpH7-A5/GpH7-B3 variant S337_01G/GpL16-k0 (antibody, human IgG1, kappa, also called He Ab) heavy 1: not shown heavy 2: not shown light: DIVMTQSPLSLPVTPGEPASISCQASESLVHSNRNTYLHWYLQKPGQSPQLLIYKVSNRFSGVPDRFSGSGSGTDFTLKISRVEAEDVGVYYCSQNTHVPPTFGQGTKVEIERTVAAPSVFIFPPSDEQLKSGTASVVCLLNNFYPREAKVQWKVDNALQSGNSQESVTEQDSKDSTYSLSSTLTLSKADYEKHKVYACEVTHQGLSSPVTKSFNRGEC",102 % of control,92 % of control,,
"GpH7-A5/GpH7-B3 variant S324_20W/GpL16-k0 (antibody, human IgG1, kappa, also called He Ab) heavy 1: not shown heavy 2: not shown light: DIVMTQSPLSLPVTPGEPASISCQASESLVHSNRNTYLHWYLQKPGQSPQLLIYKVSNRFSGVPDRFSGSGSGTDFTLKISRVEAEDVGVYYCSQNTHVPPTFGQGTKVEIERTVAAPSVFIFPPSDEQLKSGTASVVCLLNNFYPREAKVQWKVDNALQSGNSQESVTEQDSKDSTYSLSSTLTLSKADYEKHKVYACEVTHQGLSSPVTKSFNRGEC",102 % of control,87.5 % of control,,
"GpH7-A5/GpH7-B3 variant T335_06M/GpL16-k0 (antibody, human IgG1, kappa, also called He Ab) heavy 1: not shown heavy 2: not shown light: DIVMTQSPLSLPVTPGEPASISCQASESLVHSNRNTYLHWYLQKPGQSPQLLIYKVSNRFSGVPDRFSGSGSGTDFTLKISRVEAEDVGVYYCSQNTHVPPTFGQGTKVEIERTVAAPSVFIFPPSDEQLKSGTASVVCLLNNFYPREAKVQWKVDNALQSGNSQESVTEQDSKDSTYSLSSTLTLSKADYEKHKVYACEVTHQGLSSPVTKSFNRGEC",102 % of control,99.4 % of control,,
"GpH7-A5/GpH7-B3 variant S324_09D/GpL16-k0 (antibody, human IgG1, kappa, also called He Ab) heavy 1: not shown heavy 2: not shown light: DIVMTQSPLSLPVTPGEPASISCQASESLVHSNRNTYLHWYLQKPGQSPQLLIYKVSNRFSGVPDRFSGSGSGTDFTLKISRVEAEDVGVYYCSQNTHVPPTFGQGTKVEIERTVAAPSVFIFPPSDEQLKSGTASVVCLLNNFYPREAKVQWKVDNALQSGNSQESVTEQDSKDSTYSLSSTLTLSKADYEKHKVYACEVTHQGLSSPVTKSFNRGEC",101 % of control,85.8 % of control,,
"GpH7-A5/GpH7-B3 variant A327_18N/GpL16-k0 (antibody, human IgG1, kappa, He Ab; alteration in one H chain only; also called He Ab) heavy 1: not shown heavy 2: not shown light: DIVMTQSPLSLPVTPGEPASISCQASESLVHSNRNTYLHWYLQKPGQSPQLLIYKVSNRFSGVPDRFSGSGSGTDFTLKISRVEAEDVGVYYCSQNTHVPPTFGQGTKVEIERTVAAPSVFIFPPSDEQLKSGTASVVCLLNNFYPREAKVQWKVDNALQSGNSQESVTEQDSKDSTYSLSSTLTLSKADYEKHKVYACEVTHQGLSSPVTKSFNRGEC",,,113 % of control,66.8 % of control
"GpH7-A5/GpH7-B3 variant S324_15Y/GpL16-k0 (antibody, human IgG1, kappa, also called He Ab) heavy 1: not shown heavy 2: not shown light: DIVMTQSPLSLPVTPGEPASISCQASESLVHSNRNTYLHWYLQKPGQSPQLLIYKVSNRFSGVPDRFSGSGSGTDFTLKISRVEAEDVGVYYCSQNTHVPPTFGQGTKVEIERTVAAPSVFIFPPSDEQLKSGTASVVCLLNNFYPREAKVQWKVDNALQSGNSQESVTEQDSKDSTYSLSSTLTLSKADYEKHKVYACEVTHQGLSSPVTKSFNRGEC",101 % of control,88.2 % of control,,
"GpH7-A5/GpH7-B3 variant A327_01G/GpL16-k0 (antibody, human IgG1, kappa, He Ab; alteration in one H chain only; also called He Ab) heavy 1: not shown heavy 2: not shown light: DIVMTQSPLSLPVTPGEPASISCQASESLVHSNRNTYLHWYLQKPGQSPQLLIYKVSNRFSGVPDRFSGSGSGTDFTLKISRVEAEDVGVYYCSQNTHVPPTFGQGTKVEIERTVAAPSVFIFPPSDEQLKSGTASVVCLLNNFYPREAKVQWKVDNALQSGNSQESVTEQDSKDSTYSLSSTLTLSKADYEKHKVYACEVTHQGLSSPVTKSFNRGEC",,,116 % of control,97.2 % of control
"GpH7-A5/GpH7-B3 variant A327_07I/GpL16-k0 (antibody, human IgG1, kappa, He Ab; alteration in one H chain only; also called He Ab) heavy 1: not shown heavy 2: not shown light: DIVMTQSPLSLPVTPGEPASISCQASESLVHSNRNTYLHWYLQKPGQSPQLLIYKVSNRFSGVPDRFSGSGSGTDFTLKISRVEAEDVGVYYCSQNTHVPPTFGQGTKVEIERTVAAPSVFIFPPSDEQLKSGTASVVCLLNNFYPREAKVQWKVDNALQSGNSQESVTEQDSKDSTYSLSSTLTLSKADYEKHKVYACEVTHQGLSSPVTKSFNRGEC",,,127 % of control,58.4 % of control
"GpH7-A5/GpH7-B3 variant S324_16H/GpL16-k0 (antibody, human IgG1, kappa, also called He Ab) heavy 1: not shown heavy 2: not shown light: DIVMTQSPLSLPVTPGEPASISCQASESLVHSNRNTYLHWYLQKPGQSPQLLIYKVSNRFSGVPDRFSGSGSGTDFTLKISRVEAEDVGVYYCSQNTHVPPTFGQGTKVEIERTVAAPSVFIFPPSDEQLKSGTASVVCLLNNFYPREAKVQWKVDNALQSGNSQESVTEQDSKDSTYSLSSTLTLSKADYEKHKVYACEVTHQGLSSPVTKSFNRGEC",104 % of control,83.5 % of control,,
"GpH7-A5/GpH7-B3 variant A327_10E/GpL16-k0 (antibody, human IgG1, kappa, He Ab; alteration in one H chain only; also called He Ab) heavy 1: not shown heavy 2: not shown light: DIVMTQSPLSLPVTPGEPASISCQASESLVHSNRNTYLHWYLQKPGQSPQLLIYKVSNRFSGVPDRFSGSGSGTDFTLKISRVEAEDVGVYYCSQNTHVPPTFGQGTKVEIERTVAAPSVFIFPPSDEQLKSGTASVVCLLNNFYPREAKVQWKVDNALQSGNSQESVTEQDSKDSTYSLSSTLTLSKADYEKHKVYACEVTHQGLSSPVTKSFNRGEC",,,140 % of control,91.3 % of control
"GpH7-A5/GpH7-B3 variant Y300_08L/GpL16-k0 (antibody, human IgG1, kappa, also called He Ab) heavy 1: not shown heavy 2: not shown light: DIVMTQSPLSLPVTPGEPASISCQASESLVHSNRNTYLHWYLQKPGQSPQLLIYKVSNRFSGVPDRFSGSGSGTDFTLKISRVEAEDVGVYYCSQNTHVPPTFGQGTKVEIERTVAAPSVFIFPPSDEQLKSGTASVVCLLNNFYPREAKVQWKVDNALQSGNSQESVTEQDSKDSTYSLSSTLTLSKADYEKHKVYACEVTHQGLSSPVTKSFNRGEC",105 % of control,73.6 % of control,,
